Test results reported in PMC8671946.

Biological target: HER2/PD-L1 BsAb (humanized bispecific IgG1 subclass antibody targeting both HER2 and PD-L1)
Assay: BLI; Octet RED96; antibody (10 ug/ml) immobilised on Protein A biosensors; 6xHis-tagged antigens two-fold serially titrated from 100 nM; PBS with 0.02% Tween 20 and 0.1% BSA, room temperature

“human epidermal growth factor receptor 2 (HER2), recombinant, 6xHis-tagged (from UniProt P04626 23-652)” gave a Kd of 6.36 nM.
